Patent US20100260765A1 (AstraZeneca / MedImmune, published 2010)

How the values were obtained:
[1] = target: T1, whole KDR-ECD (Cat. # 676490, Calbiochem) (human, UniProt P35968 20-764); experiment: ELISA, KDR-ECD coat 5 ug/mL, antibody 1 ug/mL
T1 construct: extracellular domain; Bought soluble protein; also called soluble KDR; VEGF Receptor 2 D1-7
Protocol: (§1) The cross-reactivity of purified antibodies was tested against KDR mouse ortholog KDR mouse ortholog (mouse VEGFR2, or Flk-1) and human VEGFR1 (Flt-1). The ability of the antibodies to bind soluble KDR Ig4-7 domain and to the entire KDR extracellular domain (ECD) was also measured.
(§2) Cross-reactivity experiments were carried out and measured using an ELISA based assay as described in Example 6. […] Antibody controls included IgG1 and IgG4 (Sigma-Aldrich, Cat. #15154 and #14639, respectively).

[2] = target: T2, human KDR (human, UniProt P35968 20-1356); experiment: FACS titration of purified antibody on HUVEC cells (FACS Kd)
T2 construct: whole, on cells; also called VEGFR2; endogenously-expressed KDR in HUVEC cells
Protocol: The binding affinities of the purified antibodies for endogenously-expressed KDR in HUVEC cells was measured. HUVEC cells were seeded at 150,000 cells/well and incubated with titrations of purified antibody for 4 hours at 4° C. The cells were then washed and incubated with goat anti-human IgG-Fc-Cy5+5 μg/mL 7-Amino-Actinomycin (7AAD) for 30 minutes at 4° C. Bound KDR was detected using FACS analysis.

[3] = target: T1, whole KDR-ECD (Cat. # 676490, …); experiment: ELISA, KDR-ECD coat 5 ug/mL, antibody 0.01 ug/mL
Protocol: as §1, §2

[4] = target: T3, cynomolgus KDR (cynomolgus monkey, UniProt A0A2K5VE63 20-1356); experiment: FACS on Cyno KDR/293T transfectants, antibody 5 ug/mL
T3 construct: whole, on cells; also called Cyno KDR
Protocol: The binding of purified antibodies to cell-bound cynomolgus KDR (with parental cells as negative control) was tested by FACS analysis in this assay.
Cynomolgus KDR was cloned in 3 pieces. One piece was PCR amplified from cynomolgus lung cDNA, and the remaining two pieces were PCR amplified from cynomolgus kidney cDNA. The three PCR products were inserted into pCR3.1 Bid vector. […] Transfected cells were seeded at 50,000 cells/well and incubated with 5 μg/mL of candidate antibody for one hour at 4° C. The cells were then washed and incubated with secondary antibody (Cy5-conjugated goat anti-human antibody, or Cy5-conjugated rabbit anti-goat antibody, plus 7-Amino-Actinomycin (7AAD)) for 15 minutes at 4° C. Binding between cynomolgus KDR and purified antibody was detected by FACS analysis.

[5] = target: T4, soluble KDR Ig4-7 domain (human, UniProt P35968 328-764); experiment: ELISA, KDR Ig4-7 coat (1:1 diln.), antibody 1 ug/mL
T4 construct: domain: Ig4-7 domain; also called b-KDRIg4-7-myc-his; Ig4-7 domain of KDR; not shown: myc-his tag of the pSecTag construct
Protocol: as §1, §2

[6] = target: T5, mouse KDR (Flk-1)/Fc (Cat. #443-KD/CF, R&D Systems, Inc.) (mouse, UniProt P35918 20-762); experiment: ELISA, Flk-1 coat 5 ug/mL, antibody 0.1 ug/mL
T5 construct: Bought reagent; also called mouse VEGFR2; KDR mouse ortholog; not shown: Fc of the bought fusion protein
Protocol: as §1, §2

[7] = target: T5, mouse KDR (Flk-1)/Fc (Cat. #443-KD/CF, …); experiment: ELISA, Flk-1 coat 5 ug/mL, antibody 0.01 ug/mL
Protocol: as §1, §2

[8] = target: T2, human KDR; experiment: FACS competition on 293T/human KDR transfectants; antibody 5 ug/mL first, then competitor VEGF165 50 ng/mL; bound VEGF165 detected
Protocol: (§3) Transfected cells were then seeded at 50,000 cells/well and incubated with 5 μg/mL of candidate antibody for one hour at 4° C. […] After washing, the cells were incubated with Cy5-conjugated rabbit anti-goat antibody plus 7AAD for 15 minutes at 4° C.

[9] = target: T2, human KDR; experiment: FACS competition on 293T/human KDR transfectants; antibody 5 ug/mL first, then competitor VEGF165 50 ng/mL; inhibition of VEGF binding
Protocol: as §3

[10] = target: T4, soluble KDR Ig4-7 domain; experiment: ELISA, KDR Ig4-7 coat (1:1 diln.), antibody 0.01 ug/mL
Protocol: as §1, §2

[11] = target: T4, soluble KDR Ig4-7 domain; experiment: ELISA, KDR Ig4-7 coat (1:1 diln.), antibody 0.1 ug/mL
Protocol: as §1, §2

[12] = target: T2, human KDR; experiment: cell-based or functional assay
[13] = target: T2, human KDR; experiment: cell-based or functional assay; remark: listed apart in the source
[14] = target: T5, mouse KDR (Flk-1)/Fc (Cat. #443-KD/CF, …); experiment: ELISA, Flk-1 coat 5 ug/mL, antibody 1 ug/mL
Protocol: as §1, §2

[15] = target: T1, whole KDR-ECD (Cat. # 676490, …); experiment: ELISA, KDR-ECD coat 5 ug/mL, antibody 0.1 ug/mL
Protocol: as §1, §2

[16] = target: T2, human KDR; experiment: cell-based or functional assay; remark: listed apart in the source

T3 sequence (A0A2K5VE63 entry or part of it): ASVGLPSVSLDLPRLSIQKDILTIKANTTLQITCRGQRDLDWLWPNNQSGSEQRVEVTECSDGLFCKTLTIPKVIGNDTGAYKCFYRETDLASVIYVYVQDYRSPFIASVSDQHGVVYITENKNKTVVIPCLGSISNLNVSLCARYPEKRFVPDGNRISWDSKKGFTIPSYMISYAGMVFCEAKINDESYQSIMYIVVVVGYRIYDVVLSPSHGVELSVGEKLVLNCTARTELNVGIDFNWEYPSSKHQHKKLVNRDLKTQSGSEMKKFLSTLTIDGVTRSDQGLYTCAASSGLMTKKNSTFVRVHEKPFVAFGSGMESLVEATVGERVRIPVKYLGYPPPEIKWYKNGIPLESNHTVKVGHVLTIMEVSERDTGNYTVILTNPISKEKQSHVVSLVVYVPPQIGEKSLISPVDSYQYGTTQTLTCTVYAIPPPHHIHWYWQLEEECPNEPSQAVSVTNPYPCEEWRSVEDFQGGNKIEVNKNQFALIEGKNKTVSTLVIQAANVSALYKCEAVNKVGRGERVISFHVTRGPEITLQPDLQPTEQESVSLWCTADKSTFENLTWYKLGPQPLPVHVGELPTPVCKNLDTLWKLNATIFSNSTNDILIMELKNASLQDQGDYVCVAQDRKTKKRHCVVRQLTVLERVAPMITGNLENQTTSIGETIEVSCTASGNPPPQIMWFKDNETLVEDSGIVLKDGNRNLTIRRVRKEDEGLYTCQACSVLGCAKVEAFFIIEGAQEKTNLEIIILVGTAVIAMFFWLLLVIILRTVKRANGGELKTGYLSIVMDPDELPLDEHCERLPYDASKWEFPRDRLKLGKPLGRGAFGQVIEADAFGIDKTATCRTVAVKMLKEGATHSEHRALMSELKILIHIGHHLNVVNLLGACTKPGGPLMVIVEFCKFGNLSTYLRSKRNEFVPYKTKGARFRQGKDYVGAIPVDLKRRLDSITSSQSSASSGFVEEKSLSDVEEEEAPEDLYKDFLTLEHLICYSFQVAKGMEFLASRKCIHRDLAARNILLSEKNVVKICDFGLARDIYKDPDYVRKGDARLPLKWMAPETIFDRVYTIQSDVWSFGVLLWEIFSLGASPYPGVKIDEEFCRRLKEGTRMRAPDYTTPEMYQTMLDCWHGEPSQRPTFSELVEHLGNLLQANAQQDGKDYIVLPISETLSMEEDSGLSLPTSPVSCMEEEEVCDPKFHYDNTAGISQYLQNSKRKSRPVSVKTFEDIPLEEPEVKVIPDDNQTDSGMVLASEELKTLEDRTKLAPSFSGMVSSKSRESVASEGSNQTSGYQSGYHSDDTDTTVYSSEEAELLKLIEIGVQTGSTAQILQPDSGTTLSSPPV
T5 sequence (P35918 20-762 limits assumed): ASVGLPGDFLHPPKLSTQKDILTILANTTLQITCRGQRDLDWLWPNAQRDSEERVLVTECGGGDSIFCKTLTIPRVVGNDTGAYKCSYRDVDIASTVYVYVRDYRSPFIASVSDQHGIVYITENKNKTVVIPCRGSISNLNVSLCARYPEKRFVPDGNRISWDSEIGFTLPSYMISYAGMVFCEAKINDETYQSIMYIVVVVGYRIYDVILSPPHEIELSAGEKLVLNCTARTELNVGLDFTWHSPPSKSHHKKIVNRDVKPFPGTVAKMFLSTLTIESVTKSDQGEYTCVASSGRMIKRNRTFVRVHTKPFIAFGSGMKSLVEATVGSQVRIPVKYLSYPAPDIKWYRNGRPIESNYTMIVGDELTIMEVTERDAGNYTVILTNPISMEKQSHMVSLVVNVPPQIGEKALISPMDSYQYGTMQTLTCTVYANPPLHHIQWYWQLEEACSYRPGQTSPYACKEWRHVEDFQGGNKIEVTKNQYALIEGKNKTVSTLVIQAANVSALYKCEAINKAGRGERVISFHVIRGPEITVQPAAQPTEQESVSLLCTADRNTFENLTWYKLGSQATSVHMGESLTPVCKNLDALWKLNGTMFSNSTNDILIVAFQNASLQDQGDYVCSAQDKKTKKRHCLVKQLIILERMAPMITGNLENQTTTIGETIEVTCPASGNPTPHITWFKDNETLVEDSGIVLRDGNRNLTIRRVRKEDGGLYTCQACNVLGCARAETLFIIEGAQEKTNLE
T1 sequence (P35968 20-764): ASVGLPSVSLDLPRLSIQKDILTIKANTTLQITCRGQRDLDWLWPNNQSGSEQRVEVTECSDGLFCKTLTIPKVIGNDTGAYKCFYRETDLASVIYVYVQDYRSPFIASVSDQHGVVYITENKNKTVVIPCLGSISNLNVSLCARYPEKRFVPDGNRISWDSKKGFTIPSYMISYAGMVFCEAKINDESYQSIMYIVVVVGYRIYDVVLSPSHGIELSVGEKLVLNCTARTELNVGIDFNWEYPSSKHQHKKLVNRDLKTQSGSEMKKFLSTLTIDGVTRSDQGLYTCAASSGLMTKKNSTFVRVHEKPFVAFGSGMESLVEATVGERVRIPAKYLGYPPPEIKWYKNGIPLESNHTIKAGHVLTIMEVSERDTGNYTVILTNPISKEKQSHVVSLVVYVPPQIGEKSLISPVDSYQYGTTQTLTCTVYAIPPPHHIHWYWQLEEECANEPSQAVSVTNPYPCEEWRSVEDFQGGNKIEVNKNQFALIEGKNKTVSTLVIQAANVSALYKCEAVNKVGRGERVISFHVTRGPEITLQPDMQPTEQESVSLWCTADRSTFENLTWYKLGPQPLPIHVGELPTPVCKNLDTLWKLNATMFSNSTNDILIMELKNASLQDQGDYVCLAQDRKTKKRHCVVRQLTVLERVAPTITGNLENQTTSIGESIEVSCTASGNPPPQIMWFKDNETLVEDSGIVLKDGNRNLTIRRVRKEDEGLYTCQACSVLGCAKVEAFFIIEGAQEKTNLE
T2 sequence (P35968 20-1356): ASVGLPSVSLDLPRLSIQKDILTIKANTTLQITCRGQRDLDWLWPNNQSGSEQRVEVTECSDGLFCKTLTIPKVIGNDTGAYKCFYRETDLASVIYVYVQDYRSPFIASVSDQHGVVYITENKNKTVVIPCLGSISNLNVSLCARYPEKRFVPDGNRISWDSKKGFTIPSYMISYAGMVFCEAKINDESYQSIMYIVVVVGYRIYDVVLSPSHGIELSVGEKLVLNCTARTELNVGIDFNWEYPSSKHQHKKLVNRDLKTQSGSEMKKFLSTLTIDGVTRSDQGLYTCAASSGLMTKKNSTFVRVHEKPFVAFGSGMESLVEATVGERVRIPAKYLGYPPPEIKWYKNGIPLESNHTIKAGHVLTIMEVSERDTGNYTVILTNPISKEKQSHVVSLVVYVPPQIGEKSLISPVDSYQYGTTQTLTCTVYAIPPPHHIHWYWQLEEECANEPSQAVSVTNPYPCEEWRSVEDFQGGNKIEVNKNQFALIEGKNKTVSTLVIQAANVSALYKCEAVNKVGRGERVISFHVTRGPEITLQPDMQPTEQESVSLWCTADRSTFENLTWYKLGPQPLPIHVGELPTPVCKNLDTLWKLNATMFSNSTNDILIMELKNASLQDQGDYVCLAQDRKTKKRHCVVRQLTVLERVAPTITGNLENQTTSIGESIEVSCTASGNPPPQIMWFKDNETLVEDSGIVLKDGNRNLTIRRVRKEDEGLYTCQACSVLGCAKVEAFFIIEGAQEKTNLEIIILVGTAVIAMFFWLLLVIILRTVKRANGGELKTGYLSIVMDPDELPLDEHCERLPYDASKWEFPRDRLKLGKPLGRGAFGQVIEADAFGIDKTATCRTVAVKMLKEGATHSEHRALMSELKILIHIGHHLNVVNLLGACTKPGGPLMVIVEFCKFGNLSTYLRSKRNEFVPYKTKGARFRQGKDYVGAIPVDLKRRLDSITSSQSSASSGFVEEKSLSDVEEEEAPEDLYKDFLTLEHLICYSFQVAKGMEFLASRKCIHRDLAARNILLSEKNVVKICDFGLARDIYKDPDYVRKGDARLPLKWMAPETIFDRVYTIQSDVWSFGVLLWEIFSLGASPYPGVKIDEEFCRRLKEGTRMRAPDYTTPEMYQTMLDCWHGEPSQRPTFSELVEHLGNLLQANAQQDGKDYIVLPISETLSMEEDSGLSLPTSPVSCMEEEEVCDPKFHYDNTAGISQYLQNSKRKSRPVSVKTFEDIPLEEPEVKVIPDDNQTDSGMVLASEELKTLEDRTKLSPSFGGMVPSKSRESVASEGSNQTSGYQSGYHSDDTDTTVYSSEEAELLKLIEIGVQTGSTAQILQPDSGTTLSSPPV
T4 sequence (P35968 328-764): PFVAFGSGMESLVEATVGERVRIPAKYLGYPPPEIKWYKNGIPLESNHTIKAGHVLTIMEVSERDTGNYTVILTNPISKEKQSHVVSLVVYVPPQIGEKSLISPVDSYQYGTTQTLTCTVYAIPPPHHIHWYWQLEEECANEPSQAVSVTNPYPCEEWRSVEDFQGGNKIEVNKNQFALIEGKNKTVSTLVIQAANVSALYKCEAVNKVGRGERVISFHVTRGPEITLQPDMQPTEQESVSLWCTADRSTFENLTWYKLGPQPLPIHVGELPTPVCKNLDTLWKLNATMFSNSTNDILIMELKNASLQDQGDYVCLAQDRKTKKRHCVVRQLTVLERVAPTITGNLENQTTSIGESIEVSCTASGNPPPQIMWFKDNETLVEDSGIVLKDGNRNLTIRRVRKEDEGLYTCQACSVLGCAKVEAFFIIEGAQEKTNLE

| Binder | ELISA reading [1] | Kd [2] [nM] | ELISA reading [3] | FACS Geometric Mean Fluorescence [4] | ELISA reading [5] | FACS Geometric Mean Fluorescence (bound VEGF165) [8] | % Inhibition [9] [%] | ELISA reading [10] | ELISA reading [11] | KDR tyrosine phosphorylation in HUVEC, EC50 (nM), Average [12] [nM] | KDR tyrosine phosphorylation in HUVEC, EC50 (nM), N = 1 [12] [nM] | KDR tyrosine phosphorylation in HUVEC, EC50 (nM), N = 2 [12] [nM] | KDR tyrosine phosphorylation in HUVEC, Maximum Inhibition at 100 nM (% Inhibition), Average [12] [%] | KDR tyrosine phosphorylation in HUVEC, Maximum Inhibition at 100 nM (% Inhibition), N = 1 [12] [%] | KDR tyrosine phosphorylation in HUVEC, Maximum Inhibition at 100 nM (% Inhibition), N = 2 [12] [%] | ELISA reading [15] | 6-keto Prostaglandin F1α release, EC50 (nM), Average [16] [nM] | HUVEC survival, Maximum Inhibition at 50 nM (% Inhibition), Average [13] [%] | HUVEC survival, Maximum Inhibition at 50 nM (% Inhibition), N = 1 [13] [%] | HUVEC survival, Maximum Inhibition at 50 nM (% Inhibition), N = 2 [13] [%] | other results |
| --- | --- | --- | --- | --- | --- | --- | --- | --- | --- | --- | --- | --- | --- | --- | --- | --- | --- | --- | --- | --- | --- |
| 27D10 (antibody, V domains shown, Fully human monoclonal antibody from a XenoMouse hybridoma (IgG2 or IgG4 strain), purified) VH: QLQLQESGPGLVKPSETLSLTCTVSGGSISSRSDYWGWIRQPPGKGLEWIGTIYYSGSTFYNPSLKSRVTISVDTSKNQFSLKLSSVTAADTAVYYCARQQLVLYYFDYWGQGTLVTVSS VL: not shown | 1.36 | 1.9 | 0.087 | 89.4 | 0.076 | 111 | 15 | 0.073 | 0.086 | 1.9 | 1.6 | 2.3 | 72 | 70 | 75 | 0.187 | – | 89 | 93 | 85 | ELISA reading [6]: 1.48; ELISA reading [7]: 0.537; ELISA reading [14]: 2.14 |
| 21H6 (antibody, V domains shown, Fully human monoclonal antibody from a XenoMouse hybridoma, purified) VH: QVQLVESGGGLVKPGGSLRLSCAASGFTFSDYYMSWIRQAPGKGLEWVSYISNSGITIYYADSVKGRFTISRDNAKNSLYLQMNSLRAGDTAVYYCAREEWYSSRWYRNFDYWGQGTLVTVSS VL: DIQMTQFSSSLSASVGDRVTITCRASQSISRYLNWYQQKPGKAPKLLIYAASSLQSGVPSRFNGSGSGTDFTLTISSLQPEDFATYYCQQSYSAPLTFGGGTKVEIK | 1.46 | 17.9 | 0.087 | 102 | 0.087 | 133 | -3 | 0.074 | 0.074 | 6.9 | 7.1 | 6.7 | 82 | 81 | 84 | 0.139 | 6.3 | 96 | 96 | 96 | 6-keto Prostaglandin F1α release, EC50 (nM), N = 1 [16]: 7.3 nM; 6-keto Prostaglandin F1α release, EC50 (nM), N = 2 [16]: 5.4 nM; 6-keto Prostaglandin F1α release, Maximum Inhibition (% Inhibition), Average [16]: 77%; 6-keto Prostaglandin F1α release, Maximum Inhibition (% Inhibition), N = 1 (200 nM) [16]: 80%; 6-keto Prostaglandin F1α release, Maximum Inhibition (% Inhibition), N = 2 (333 nM) [16]: 75% |

Second part, led by results:

| ELISA reading [1] | Kd [2] [nM] | ELISA reading [3] | FACS Geometric Mean Fluorescence [4] | ELISA reading [5] | FACS Geometric Mean Fluorescence (bound VEGF165) [8] | % Inhibition [9] [%] | ELISA reading [10] | ELISA reading [11] | KDR tyrosine phosphorylation in HUVEC, EC50 (nM), Average [12] [nM] | KDR tyrosine phosphorylation in HUVEC, EC50 (nM), N = 1 [12] [nM] | KDR tyrosine phosphorylation in HUVEC, EC50 (nM), N = 2 [12] [nM] | KDR tyrosine phosphorylation in HUVEC, Maximum Inhibition at 100 nM (% Inhibition), Average [12] [%] | KDR tyrosine phosphorylation in HUVEC, Maximum Inhibition at 100 nM (% Inhibition), N = 1 [12] [%] | KDR tyrosine phosphorylation in HUVEC, Maximum Inhibition at 100 nM (% Inhibition), N = 2 [12] [%] | ELISA reading [15] | 6-keto Prostaglandin F1α release, EC50 (nM), Average [16] [nM] | Binder | HUVEC survival, Maximum Inhibition at 50 nM (% Inhibition), Average [13] [%] | HUVEC survival, Maximum Inhibition at 50 nM (% Inhibition), N = 1 [13] [%] | HUVEC survival, Maximum Inhibition at 50 nM (% Inhibition), N = 2 [13] [%] | other results |
| --- | --- | --- | --- | --- | --- | --- | --- | --- | --- | --- | --- | --- | --- | --- | --- | --- | --- | --- | --- | --- | --- |
| 1.97 | 5.4 | 0.093 | 89.7 | 0.078 | 118 | 9 | 0.08 | 0.075 | 3.1 | 3.4 | 2.9 | 78 | 77 | 79 | 0.111 | 5.6 | 27A3 (antibody, V domains shown, Fully human monoclonal antibody from a XenoMouse hybridoma (IgG2 or IgG4 strain), purified) VH: QLQLQESGPGLVKPSETLSLTCTVSGGSISSRSDYWGWIRQPPGKGLEWIGTIYYSGDTYYNPSLKSRVTISVDTSKNQFSLKLSSVTAADTAVYYCARQQLVLYYFDYWGQGTLVTVSS VL: EIVLTQSPGTLSLSPGERATLSCRASQSVSSSYLAWYQQKPGQAPRLLIYATSNRATGIPDRFSGSGSGTDFTLTISRLEPEDFAVYYCQQHGSSPPLTFGGGTKVEIK | 95 | 95 | 94 | 6-keto Prostaglandin F1α release, EC50 (nM), N = 1 [16]: 5.5 nM; 6-keto Prostaglandin F1α release, EC50 (nM), N = 2 [16]: 5.7 nM; 6-keto Prostaglandin F1α release, Maximum Inhibition (% Inhibition), Average [16]: 49%; 6-keto Prostaglandin F1α release, Maximum Inhibition (% Inhibition), N = 1 (200 nM) [16]: 49%; 6-keto Prostaglandin F1α release, Maximum Inhibition (% Inhibition), N = 2 (333 nM) [16]: 49% |
| 2.36 | 0.2 | 0.103 | – | 2.65 | – | – | 0.933 | 2.31 | 0.6 | 0.6 | 0.6 | 73 | 69 | 77 | 0.307 | 23.1 | 32G7 (antibody, V domains shown, Fully human monoclonal antibody from a XenoMouse hybridoma (IgG2 or IgG4 strain), purified) VH: EVQLVESGGGLVKPGGSLRLSCAASGFTISSYSMNWVRQAPGKGLEWVSFISSRSNYIYYADSVKGRFTISRDNAKNSLYLQMNSLRAEDTAVYYCSKDDWFEELWGQGTLVTVSS VL: DIQMTQSPSSLSASVGDRVTITCRASQDIRNDLGWYQQKPGKAPKRLIYAASSLQSGVPSRFSGSGSGTEFTLTISSLQPEDFATYYCLQHNSFPWTFGQGTKVEIK | 72 | 73 | 72 | ELISA reading [6]: 2.14; ELISA reading [7]: 0.988; 6-keto Prostaglandin F1α release, EC50 (nM), N = 1 [16]: 11.2 nM; 6-keto Prostaglandin F1α release, EC50 (nM), N = 2 [16]: 35.1 nM; 6-keto Prostaglandin F1α release, Maximum Inhibition (% Inhibition), Average [16]: 42%; 6-keto Prostaglandin F1α release, Maximum Inhibition (% Inhibition), N = 1 (200 nM) [16]: 28%; 6-keto Prostaglandin F1α release, Maximum Inhibition (% Inhibition), N = 2 (333 nM) [16]: 55%; ELISA reading [14]: 2.67 |
